Among the data in publication PMC2730839 are Km values, retold here.

Substrate in the data set: O=C(O)C(=O)c1ccccc1
The data set is described as follows: steady-state kinetics. The class given is biochemical, Pseudomonas putida. Particulars: thiamin diphosphate (ThDP), Mg2+ active site.

B1: benzoylformate decarboxylase (BFDC) (Pseudomonas putida) (protein)
chain: MASVHGTTYELLRRQGIDTVFGNPGSNELPFLKDFPEDFRYILALQEACVVGIADGYAQASRKPAFINLHSAAGTGNAMGALSNAWNSHSPLIVTAGQQTRAMIGVEALLTNVDAANLPRPLVKWSYEPASAAEVPHAMSRAIHMASMAPQGPVYLSVPYDDWDKDADPQSHHLFDRHVSSSVRLNDQDLDILVKALNSASNPAIVLGPDVDAANANADCVMLAERLKAPVWVAPSAPRCPFPTRHPCFRGLMPAGIAAISQLLEGHDVVLVIGAPVFRYHQYDPGQYLKPGTRLISVTCDPLEAARAPMGDAIVADIGAMASALANLVEESSRQLPTAAPEPAKVDQDAGRLHPETVFDTLNDMAPENAIYLNESTSTTAQMWQRLNMRNPGSYYFCAAGGLGFALPAAIGVQLAEPERQVIAVIGDGSANYSISALWTAAQYNIPTIFVIMNNGTYGALRWFAGVLEAENVPGLDVPGIDFRALAKGYGVQALKADNLEQLKGSLQEALSAKGPVLIEVSTVSPVK
The term Km denotes the concentration of substrate that gives half-maximal velocity. Regarding B1, the Km amounted to 760 ± 90 µM.
